Experimental data taken from paper PMC4569848 (Nature Communications, 2015).

T1: GST-clathrin 1–494 (human, UniProt Q00610 1-494)
T1 construct: clathrin, human, residues 1-494, in pGEX-6P1; source: E. coli BL21, purified (glutathione-Sepharose 4B, eluted with GSH); not shown: GST, N-terminal, kept
T1 sequence (looked up): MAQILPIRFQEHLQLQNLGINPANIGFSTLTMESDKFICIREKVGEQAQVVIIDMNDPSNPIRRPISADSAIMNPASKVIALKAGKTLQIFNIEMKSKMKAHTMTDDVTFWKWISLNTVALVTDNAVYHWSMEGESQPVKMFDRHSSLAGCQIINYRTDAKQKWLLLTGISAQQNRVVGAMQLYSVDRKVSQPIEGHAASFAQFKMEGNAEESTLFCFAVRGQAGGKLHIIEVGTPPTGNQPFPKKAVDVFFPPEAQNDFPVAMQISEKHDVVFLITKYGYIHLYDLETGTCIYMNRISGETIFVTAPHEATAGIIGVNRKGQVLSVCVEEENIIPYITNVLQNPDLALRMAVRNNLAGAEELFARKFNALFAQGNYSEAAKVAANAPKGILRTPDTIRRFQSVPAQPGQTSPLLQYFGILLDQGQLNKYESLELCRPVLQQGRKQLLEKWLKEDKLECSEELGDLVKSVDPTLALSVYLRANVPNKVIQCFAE

B1: β-arrestin-1-K138-F2Y (natural protein, bovine, UniProt P17870 1-418, looked up)
chain: MGDKGTRVFKKASPNGKLTVYLGKRDFVDHIDLVEPVDGVVLVDPEYLKERRVYVTLTCAFRYGREDLDVLGLTFRKDLFVANVQSFPPAPEDKKPLTRLQERLIKKLGEHAYPFTFEIPPNLPCSVTLQPGPEDTGYACGVDYEVKAFCAENLEEKIHKRNSVRLVIRKVQYAPERPGPQPTAETTRQFLMSDKPLHLEASLDKEIYYHGEPISVNVHVTNNTNKTVKKIKISVRQYADICLFNTAQYKCPVAMEEADDTVAPSSTFCKVYTLTPFLANNREKRGLALDGKLKHEDTNLASSTLLREGANREILGIIVSYKVKVKLVVSRGGLLGDLASSDVAVELPFTLMHPKPKEEPPHREVPEHETPVDTNLIELDTNDDDIVFEDFARQRLKGMKDDKEEEEDGTGSPRLNDR
modifications: 3,5-difluorotyrosine (F2Y) at 138
notes: β-arrestin-1, bovine, full-length cDNA in pET22b, amber codon at K138 read as F2Y; source: E. coli BL21 (DE3) with pEVOL-F2YRS and F2Y in the medium, purified (Ni-NTA, gel filtration)
B2: β-arrestin-1-K294-F2Y (natural protein, bovine, UniProt P17870 1-418, looked up)
chain: MGDKGTRVFKKASPNGKLTVYLGKRDFVDHIDLVEPVDGVVLVDPEYLKERRVYVTLTCAFRYGREDLDVLGLTFRKDLFVANVQSFPPAPEDKKPLTRLQERLIKKLGEHAYPFTFEIPPNLPCSVTLQPGPEDTGKACGVDYEVKAFCAENLEEKIHKRNSVRLVIRKVQYAPERPGPQPTAETTRQFLMSDKPLHLEASLDKEIYYHGEPISVNVHVTNNTNKTVKKIKISVRQYADICLFNTAQYKCPVAMEEADDTVAPSSTFCKVYTLTPFLANNREKRGLALDGKLYHEDTNLASSTLLREGANREILGIIVSYKVKVKLVVSRGGLLGDLASSDVAVELPFTLMHPKPKEEPPHREVPEHETPVDTNLIELDTNDDDIVFEDFARQRLKGMKDDKEEEEDGTGSPRLNDR
modifications: 3,5-difluorotyrosine (F2Y) at 294
notes: β-arrestin-1, bovine, full-length cDNA in pET22b, amber codon at K294 read as F2Y; source: E. coli BL21 (DE3) with pEVOL-F2YRS and F2Y in the medium, purified (Ni-NTA, gel filtration)
B3: β-arrestin-1-L338-F2Y (natural protein, bovine, UniProt P17870 1-418, looked up)
chain: MGDKGTRVFKKASPNGKLTVYLGKRDFVDHIDLVEPVDGVVLVDPEYLKERRVYVTLTCAFRYGREDLDVLGLTFRKDLFVANVQSFPPAPEDKKPLTRLQERLIKKLGEHAYPFTFEIPPNLPCSVTLQPGPEDTGKACGVDYEVKAFCAENLEEKIHKRNSVRLVIRKVQYAPERPGPQPTAETTRQFLMSDKPLHLEASLDKEIYYHGEPISVNVHVTNNTNKTVKKIKISVRQYADICLFNTAQYKCPVAMEEADDTVAPSSTFCKVYTLTPFLANNREKRGLALDGKLKHEDTNLASSTLLREGANREILGIIVSYKVKVKLVVSRGGLLGDYASSDVAVELPFTLMHPKPKEEPPHREVPEHETPVDTNLIELDTNDDDIVFEDFARQRLKGMKDDKEEEEDGTGSPRLNDR
modifications: 3,5-difluorotyrosine (F2Y) at 338
notes: β-arrestin-1, bovine, full-length cDNA in pET22b, amber codon at L338 read as F2Y; also called F2Y-L338; source: E. coli BL21 (DE3) with pEVOL-F2YRS and F2Y in the medium, purified (Ni-NTA, gel filtration)
B4: β-arrestin-1-N375-F2Y (natural protein, bovine, UniProt P17870 1-418, looked up)
chain: MGDKGTRVFKKASPNGKLTVYLGKRDFVDHIDLVEPVDGVVLVDPEYLKERRVYVTLTCAFRYGREDLDVLGLTFRKDLFVANVQSFPPAPEDKKPLTRLQERLIKKLGEHAYPFTFEIPPNLPCSVTLQPGPEDTGKACGVDYEVKAFCAENLEEKIHKRNSVRLVIRKVQYAPERPGPQPTAETTRQFLMSDKPLHLEASLDKEIYYHGEPISVNVHVTNNTNKTVKKIKISVRQYADICLFNTAQYKCPVAMEEADDTVAPSSTFCKVYTLTPFLANNREKRGLALDGKLKHEDTNLASSTLLREGANREILGIIVSYKVKVKLVVSRGGLLGDLASSDVAVELPFTLMHPKPKEEPPHREVPEHETPVDTYLIELDTNDDDIVFEDFARQRLKGMKDDKEEEEDGTGSPRLNDR
modifications: 3,5-difluorotyrosine (F2Y) at 375
notes: β-arrestin-1, bovine, full-length cDNA in pET22b, amber codon at N375 read as F2Y; also called F2Y-N375; source: E. coli BL21 (DE3) with pEVOL-F2YRS and F2Y in the medium, purified (Ni-NTA, gel filtration)
B5: β-arrestin-1-R7-F2Y (natural protein, bovine, UniProt P17870 1-418, looked up)
chain: MGDKGTYVFKKASPNGKLTVYLGKRDFVDHIDLVEPVDGVVLVDPEYLKERRVYVTLTCAFRYGREDLDVLGLTFRKDLFVANVQSFPPAPEDKKPLTRLQERLIKKLGEHAYPFTFEIPPNLPCSVTLQPGPEDTGKACGVDYEVKAFCAENLEEKIHKRNSVRLVIRKVQYAPERPGPQPTAETTRQFLMSDKPLHLEASLDKEIYYHGEPISVNVHVTNNTNKTVKKIKISVRQYADICLFNTAQYKCPVAMEEADDTVAPSSTFCKVYTLTPFLANNREKRGLALDGKLKHEDTNLASSTLLREGANREILGIIVSYKVKVKLVVSRGGLLGDLASSDVAVELPFTLMHPKPKEEPPHREVPEHETPVDTNLIELDTNDDDIVFEDFARQRLKGMKDDKEEEEDGTGSPRLNDR
modifications: 3,5-difluorotyrosine (F2Y) at 7
notes: β-arrestin-1, bovine, full-length cDNA in pET22b, amber codon at R7 read as F2Y; source: E. coli BL21 (DE3) with pEVOL-F2YRS and F2Y in the medium, purified (Ni-NTA, gel filtration)
B6: β-arrestin-1-T136-F2Y (natural protein, bovine, UniProt P17870 1-418, looked up)
chain: MGDKGTRVFKKASPNGKLTVYLGKRDFVDHIDLVEPVDGVVLVDPEYLKERRVYVTLTCAFRYGREDLDVLGLTFRKDLFVANVQSFPPAPEDKKPLTRLQERLIKKLGEHAYPFTFEIPPNLPCSVTLQPGPEDYGKACGVDYEVKAFCAENLEEKIHKRNSVRLVIRKVQYAPERPGPQPTAETTRQFLMSDKPLHLEASLDKEIYYHGEPISVNVHVTNNTNKTVKKIKISVRQYADICLFNTAQYKCPVAMEEADDTVAPSSTFCKVYTLTPFLANNREKRGLALDGKLKHEDTNLASSTLLREGANREILGIIVSYKVKVKLVVSRGGLLGDLASSDVAVELPFTLMHPKPKEEPPHREVPEHETPVDTNLIELDTNDDDIVFEDFARQRLKGMKDDKEEEEDGTGSPRLNDR
modifications: 3,5-difluorotyrosine (F2Y) at 136
notes: β-arrestin-1, bovine, full-length cDNA in pET22b, amber codon at T136 read as F2Y; also called F2Y-T136; source: E. coli BL21 (DE3) with pEVOL-F2YRS and F2Y in the medium, purified (Ni-NTA, gel filtration)

What follows are binders tested against T1, GST-clathrin 1–494 (assay: pull-down; β-arrestin-1-F2Y mutants (300 nM) incubated with equal concentrations of GST-clathrin and V2R-phospho-peptide (V2Rpp), or without peptide; pulled down with GST beads; bound β-arrestin-1 detected by western blot with a β-arrestin-1 antibody). Conditions: both partners purified.

Q: Does B1 bind?
A: binds

Q: Does B2 bind?
A: binds

Q: Does B3 bind?
A: binds

Q: Does B4 bind?
A: binds

Q: Does B5 bind?
A: binds

Q: Does B6 bind?
A: binds
